Measurements reported in PMC11866011.

What was measured:
[1] = target: EncA-ST (Myxococcus xanthus encapsulin shell protein EncA with the SpyTag peptide fused to its C-terminus) (Myxococcus xanthus | Streptococcus pyogenes); assay: negative-stain TEM; purified nanocompartments loaded with sfGFP-CLP (coexpressed), 0.01-0.03 mg/mL, uranyl acetate 0.5% stain; subunit number read from the particle diameter
[2] = target: EncA-ST (Myxococcus xanthus encapsulin shell protein EncA with the SpyTag peptide fused to its C-terminus) (Myxococcus xanthus | Streptococcus pyogenes); assay: negative-stain TEM; purified empty (unloaded) nanocompartments, 0.01-0.03 mg/mL, uranyl acetate 0.5% stain; subunit number read from the particle diameter
[3] = target: EncA-157ST (Myxococcus xanthus encapsulin shell protein EncA with the SpyTag peptide inserted between residues 157 and 158) (Myxococcus xanthus | Streptococcus pyogenes) (UniProt Q1D6H4); assay: negative-stain TEM; purified nanocompartments loaded with sfGFP-CLP (coexpressed), 0.01-0.03 mg/mL, uranyl acetate 0.5% stain; subunit number read from the particle diameter
[4] = target: EncA-157ST (Myxococcus xanthus encapsulin shell protein EncA with the SpyTag peptide inserted between residues 157 and 158) (Myxococcus xanthus | Streptococcus pyogenes) (UniProt Q1D6H4); assay: negative-stain TEM; purified empty (unloaded) nanocompartments, 0.01-0.03 mg/mL, uranyl acetate 0.5% stain; subunit number read from the particle diameter

Substance | stoichiometry N [1] | stoichiometry N [2] | stoichiometry N [3] | stoichiometry N [4]
EncA-ST (Myxococcus xanthus encapsulin shell protein EncA with the SpyTag peptide fused to its C-terminus) | 180 subunits | 60 subunits |  | 
EncA-157ST (Myxococcus xanthus encapsulin shell protein EncA with the SpyTag peptide inserted between residues 157 and 158) (from UniProt Q1D6H4 1-157; Q1D6H4 158-287) |  |  | 180 subunits | 60 subunits
